From US9176064B2, “Bisubstrate fluorescent probes for protein kinase CK2” (University of Tartu, priority 2012, dated 2015) come the findings set out here.

Common to all, as to test: Kinase panel residual activity
Holding throughout (format): biochemical
Common to all, as to conditions: compound at 1 micromolar

For one data set, the target named is T1, TSSK1 (Homo sapiens, UniProt Q9BXA7).
T1 sequence (Q9BXA7 1-367): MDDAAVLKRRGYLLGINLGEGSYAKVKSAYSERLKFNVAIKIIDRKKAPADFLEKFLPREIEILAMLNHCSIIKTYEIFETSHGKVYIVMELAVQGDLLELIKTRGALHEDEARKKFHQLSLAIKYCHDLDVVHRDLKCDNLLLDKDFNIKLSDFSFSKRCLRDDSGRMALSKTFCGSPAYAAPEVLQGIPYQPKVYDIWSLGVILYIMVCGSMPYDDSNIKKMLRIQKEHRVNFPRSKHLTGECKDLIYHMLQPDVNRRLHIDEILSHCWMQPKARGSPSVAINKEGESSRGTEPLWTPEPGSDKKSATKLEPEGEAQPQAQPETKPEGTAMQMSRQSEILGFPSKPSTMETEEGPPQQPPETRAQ

In the next data set the target is T2, ASK1 (Homo sapiens, UniProt Q99683).
T2 sequence (Q99683 1-1374): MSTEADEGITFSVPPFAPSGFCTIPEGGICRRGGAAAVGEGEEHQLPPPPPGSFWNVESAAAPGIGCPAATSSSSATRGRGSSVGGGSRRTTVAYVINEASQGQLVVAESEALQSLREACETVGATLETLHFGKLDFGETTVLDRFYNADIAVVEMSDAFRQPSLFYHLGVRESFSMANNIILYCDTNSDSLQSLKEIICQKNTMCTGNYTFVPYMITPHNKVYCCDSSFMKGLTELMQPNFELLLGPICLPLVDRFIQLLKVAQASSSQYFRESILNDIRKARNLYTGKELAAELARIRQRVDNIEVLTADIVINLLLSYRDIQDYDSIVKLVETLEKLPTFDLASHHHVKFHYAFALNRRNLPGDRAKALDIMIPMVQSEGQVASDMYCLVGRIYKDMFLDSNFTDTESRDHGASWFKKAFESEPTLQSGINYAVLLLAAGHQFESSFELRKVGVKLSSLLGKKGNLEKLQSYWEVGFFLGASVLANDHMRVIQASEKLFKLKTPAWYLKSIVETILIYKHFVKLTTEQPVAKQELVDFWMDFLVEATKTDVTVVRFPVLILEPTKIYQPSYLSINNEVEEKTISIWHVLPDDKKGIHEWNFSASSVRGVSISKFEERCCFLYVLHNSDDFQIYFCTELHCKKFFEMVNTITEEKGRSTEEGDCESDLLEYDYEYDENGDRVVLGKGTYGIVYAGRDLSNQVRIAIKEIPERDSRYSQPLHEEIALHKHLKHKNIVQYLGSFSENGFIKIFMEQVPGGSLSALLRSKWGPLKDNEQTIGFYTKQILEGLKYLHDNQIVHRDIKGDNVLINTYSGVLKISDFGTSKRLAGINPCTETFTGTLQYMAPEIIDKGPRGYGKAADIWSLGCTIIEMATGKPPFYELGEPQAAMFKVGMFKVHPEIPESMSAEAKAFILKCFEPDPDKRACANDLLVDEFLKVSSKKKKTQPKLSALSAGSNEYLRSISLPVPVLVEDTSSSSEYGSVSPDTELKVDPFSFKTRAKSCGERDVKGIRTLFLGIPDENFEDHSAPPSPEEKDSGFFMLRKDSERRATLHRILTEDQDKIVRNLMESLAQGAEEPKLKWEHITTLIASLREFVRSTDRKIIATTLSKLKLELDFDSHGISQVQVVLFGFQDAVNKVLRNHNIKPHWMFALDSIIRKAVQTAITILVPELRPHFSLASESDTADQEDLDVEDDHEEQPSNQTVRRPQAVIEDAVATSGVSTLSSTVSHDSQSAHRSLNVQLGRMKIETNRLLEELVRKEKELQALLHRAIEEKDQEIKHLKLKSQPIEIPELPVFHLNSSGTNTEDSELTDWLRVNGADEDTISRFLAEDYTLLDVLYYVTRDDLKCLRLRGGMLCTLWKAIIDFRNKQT

A further data set concerns the target T3, EIF2AK3 (Homo sapiens, UniProt Q9NZJ5).
T3 sequence (Q9NZJ5 30-1116): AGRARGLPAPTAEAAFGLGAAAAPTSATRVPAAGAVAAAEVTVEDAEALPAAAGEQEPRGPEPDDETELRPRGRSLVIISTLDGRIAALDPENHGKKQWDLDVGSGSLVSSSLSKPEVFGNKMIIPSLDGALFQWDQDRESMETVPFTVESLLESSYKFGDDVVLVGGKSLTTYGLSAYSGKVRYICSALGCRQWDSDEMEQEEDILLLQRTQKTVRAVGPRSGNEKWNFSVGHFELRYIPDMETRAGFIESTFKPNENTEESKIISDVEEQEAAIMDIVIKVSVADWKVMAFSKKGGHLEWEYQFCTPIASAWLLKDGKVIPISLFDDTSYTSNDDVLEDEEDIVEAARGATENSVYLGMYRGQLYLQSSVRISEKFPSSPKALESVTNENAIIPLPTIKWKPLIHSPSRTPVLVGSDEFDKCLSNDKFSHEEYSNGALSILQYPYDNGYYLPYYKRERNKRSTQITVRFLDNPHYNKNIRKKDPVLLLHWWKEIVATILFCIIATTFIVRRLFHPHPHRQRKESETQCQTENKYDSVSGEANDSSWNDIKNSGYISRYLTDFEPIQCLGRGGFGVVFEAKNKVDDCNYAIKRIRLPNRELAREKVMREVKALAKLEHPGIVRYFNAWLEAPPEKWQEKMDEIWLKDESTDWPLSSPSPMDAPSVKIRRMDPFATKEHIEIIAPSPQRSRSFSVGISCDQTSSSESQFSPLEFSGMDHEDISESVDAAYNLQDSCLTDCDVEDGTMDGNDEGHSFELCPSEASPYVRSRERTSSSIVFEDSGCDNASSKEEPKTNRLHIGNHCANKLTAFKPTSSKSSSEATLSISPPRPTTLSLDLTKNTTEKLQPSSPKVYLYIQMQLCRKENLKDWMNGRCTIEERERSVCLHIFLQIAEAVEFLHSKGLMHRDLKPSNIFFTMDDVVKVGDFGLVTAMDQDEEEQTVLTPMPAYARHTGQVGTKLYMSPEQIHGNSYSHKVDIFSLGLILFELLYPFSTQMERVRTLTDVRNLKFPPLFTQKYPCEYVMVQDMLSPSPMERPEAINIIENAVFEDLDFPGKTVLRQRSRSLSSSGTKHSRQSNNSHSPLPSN

The target of the next data set is PDGFRA (Homo sapiens, UniProt P16234).
Chain of PDGFRA (P16234 24-1089, species assumed): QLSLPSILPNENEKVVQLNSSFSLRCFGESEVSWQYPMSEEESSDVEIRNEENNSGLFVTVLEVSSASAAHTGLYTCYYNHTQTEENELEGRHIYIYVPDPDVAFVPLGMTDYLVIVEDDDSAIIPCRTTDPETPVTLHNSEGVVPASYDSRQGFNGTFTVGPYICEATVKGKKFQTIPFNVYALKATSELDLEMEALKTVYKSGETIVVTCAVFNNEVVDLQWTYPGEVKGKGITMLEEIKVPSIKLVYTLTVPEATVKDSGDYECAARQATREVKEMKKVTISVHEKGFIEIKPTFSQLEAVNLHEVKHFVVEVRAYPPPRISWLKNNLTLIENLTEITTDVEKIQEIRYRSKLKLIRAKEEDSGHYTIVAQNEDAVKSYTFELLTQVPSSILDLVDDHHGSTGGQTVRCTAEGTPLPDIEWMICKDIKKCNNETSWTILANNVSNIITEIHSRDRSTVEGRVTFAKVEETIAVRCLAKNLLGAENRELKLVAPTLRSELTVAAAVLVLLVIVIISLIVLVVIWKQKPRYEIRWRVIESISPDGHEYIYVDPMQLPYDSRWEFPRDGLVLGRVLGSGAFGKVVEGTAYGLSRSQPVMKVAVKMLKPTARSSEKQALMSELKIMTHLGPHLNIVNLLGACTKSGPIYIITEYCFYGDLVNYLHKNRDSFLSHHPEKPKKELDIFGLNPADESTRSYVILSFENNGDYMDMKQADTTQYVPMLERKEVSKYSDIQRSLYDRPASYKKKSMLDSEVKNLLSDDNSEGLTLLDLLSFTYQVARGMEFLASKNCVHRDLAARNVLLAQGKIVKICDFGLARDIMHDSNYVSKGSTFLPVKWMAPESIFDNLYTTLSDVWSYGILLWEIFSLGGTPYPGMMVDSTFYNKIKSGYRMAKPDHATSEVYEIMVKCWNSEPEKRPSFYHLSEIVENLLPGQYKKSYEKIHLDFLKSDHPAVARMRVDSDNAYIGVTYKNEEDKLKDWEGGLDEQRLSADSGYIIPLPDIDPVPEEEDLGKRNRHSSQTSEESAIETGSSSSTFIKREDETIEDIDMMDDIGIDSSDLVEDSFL

By remaining activity is commonly meant the signal under treatment as a percentage of the control signal.

Where a SMILES comes first, the peptide text is derived from it. [ ]: non-standard residue; d: D form. The star is where a group is joined. X1 = O=C(CCCCCCCn1cnc2c(Br)c(Br)c(Br)c(Br)c21)*

As for `NCCCC[C@H](NC(=O)[C@H](CC(=O)O)NC(=O)[C@H](CC(=O)O)NC(=O)[C@H](CC(=O)O)NC(=O)[C@H](CC(=O)O)NC(=O)[C@H](CC(=O)O)NC(=O)[C@@H](CC(=O)O)NC(=O)CCCCCCCn1cnc2c(Br)c(Br)c(Br)c(Br)c21)C(=O)O` [TBBI-OcA-(D-Asp)-(L-Asp)5-(L-Lys)-OH] (X1-[dD]DDDDDK-OH), the remaining activity at 1 µM is 86% in the data set with TSSK1, 114% in the data set with ASK1, 71% with EIF2AK3 and 77% with PDGFRA.
